Reference: patent US20020119153A1

Legend:
[1] = target: VEGF:sFlk-1 complex (human; mouse) (UniProt P15692); experiment: capture ELISA: biotinylated sFlk-1 complexed with VEGF titrated onto wells coated with the antibody; concentration giving 50% maximal binding; extrapolated value
[2] = target: recombinant human VEGF165 (human) (UniProt P15692); experiment: blocking ELISA, negative control: 1 nM VEGF bound to wells coated with VEGFR1 (Flt-1/Fc) with 1000 nM control IgG of irrelevant specificity (1000x) present; bound VEGF detected with rabbit anti-VEGF A-20; the number measures VEGF:VEGFR1 binding, not binding of the control IgG to VEGF
Sequence of recombinant human VEGF165 (human) (P15692 other isoform, or with tags, fused parts or gaps): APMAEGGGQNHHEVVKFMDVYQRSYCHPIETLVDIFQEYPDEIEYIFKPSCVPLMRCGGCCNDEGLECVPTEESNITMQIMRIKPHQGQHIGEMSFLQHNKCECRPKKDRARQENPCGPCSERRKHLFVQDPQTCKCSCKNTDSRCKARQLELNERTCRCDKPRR

[3] = target: recombinant human VEGF165 (human) (UniProt P15692); experiment: blocking ELISA, negative control: 1 nM VEGF bound to wells coated with VEGFR2 (sFlk-1) with 100 nM control IgG of irrelevant specificity (100x) present; bound VEGF detected with rabbit anti-VEGF A-20; the number measures VEGF:VEGFR2 binding, not binding of the control IgG to VEGF
[4] = target: recombinant human VEGF165 (human) (UniProt P15692); experiment: blocking ELISA, negative control: 1 nM VEGF bound to wells coated with VEGFR1 (Flt-1/Fc) with 100 nM control IgG of irrelevant specificity (100x) present; bound VEGF detected with rabbit anti-VEGF A-20; the number measures VEGF:VEGFR1 binding, not binding of the control IgG to VEGF
[5] = target: recombinant human VEGF165 (human) (UniProt P15692); experiment: blocking ELISA, negative control: 1 nM VEGF bound to wells coated with VEGFR2 (sFlk-1) with 1000 nM control IgG of irrelevant specificity (1000x) present; bound VEGF detected with rabbit anti-VEGF A-20; the number measures VEGF:VEGFR2 binding, not binding of the control IgG to VEGF

Sequence of VEGF:sFlk-1 complex (human; mouse) (P15692 other isoform, or with tags, fused parts or gaps limits assumed, chain 1 of 2): as the sequence (P15692 other isoform, or with tags, fused parts or gaps) above
Sequence of VEGF:sFlk-1 complex (human; mouse) (P35918 20-762 limits assumed, chain 2 of 2, further chain): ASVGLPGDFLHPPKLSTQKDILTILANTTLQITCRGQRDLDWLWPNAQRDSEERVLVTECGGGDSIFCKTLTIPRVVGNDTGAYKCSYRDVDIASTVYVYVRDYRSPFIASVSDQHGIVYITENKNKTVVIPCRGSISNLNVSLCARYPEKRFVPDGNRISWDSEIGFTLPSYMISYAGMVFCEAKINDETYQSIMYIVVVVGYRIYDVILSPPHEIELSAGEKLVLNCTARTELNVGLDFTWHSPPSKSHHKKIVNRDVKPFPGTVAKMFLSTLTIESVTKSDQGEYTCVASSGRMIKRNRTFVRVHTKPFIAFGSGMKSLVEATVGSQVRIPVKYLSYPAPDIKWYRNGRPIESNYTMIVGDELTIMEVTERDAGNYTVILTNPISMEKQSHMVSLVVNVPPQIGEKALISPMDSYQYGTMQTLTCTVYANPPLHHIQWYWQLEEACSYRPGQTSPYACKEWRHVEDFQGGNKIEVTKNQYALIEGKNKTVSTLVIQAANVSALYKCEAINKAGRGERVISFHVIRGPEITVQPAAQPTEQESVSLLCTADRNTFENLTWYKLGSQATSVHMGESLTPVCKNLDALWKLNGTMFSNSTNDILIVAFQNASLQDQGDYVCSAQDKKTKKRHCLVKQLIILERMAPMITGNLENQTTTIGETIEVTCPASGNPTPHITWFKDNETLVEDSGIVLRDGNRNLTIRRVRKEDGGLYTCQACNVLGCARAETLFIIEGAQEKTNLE

| Substance | EC50 [1] [nM] | % of VEGF alone [2] [%] | % of VEGF alone [3] [%] | % of VEGF alone [4] [%] | % of VEGF alone [5] [%] |
| --- | --- | --- | --- | --- | --- |
| A4.6.1, mouse anti-human VEGF monoclonal antibody (Genentech) | 500 | – | – | – | – |
| control IgG of irrelevant specificity (antibody) | – | 92 | 96 | 98 | 93 |
| irrelevant IgM (negative control) (antibody) | 600 | – | – | – | – |
